Series [1] has as its target T1, E. coli RNase H1 D134A (nuclease-deficient parent) (Escherichia coli) (UniProt P0A7Y4).
T1 sequence: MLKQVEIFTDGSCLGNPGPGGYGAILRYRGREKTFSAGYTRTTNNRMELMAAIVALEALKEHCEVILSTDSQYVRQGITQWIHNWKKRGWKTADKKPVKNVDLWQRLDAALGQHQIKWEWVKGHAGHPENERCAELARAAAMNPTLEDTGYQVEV
Description: competition. As to conditions: 25 C.

Series [2] concerns the target T2, RNase H1 D94G/D134A mutant (Escherichia coli, UniProt P0A7Y4 SEQ:1-155).
T2 chain: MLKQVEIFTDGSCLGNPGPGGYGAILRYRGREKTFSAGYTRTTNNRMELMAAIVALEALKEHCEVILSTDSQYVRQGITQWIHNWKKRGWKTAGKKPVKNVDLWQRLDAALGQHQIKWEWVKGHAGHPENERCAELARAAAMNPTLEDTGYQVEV
Description: competition. As to conditions: 25 C.

Series [3] deals with T2, RNase H1 D94G/D134A mutant. Description: filter; 50 mM NaCl, 1 mM EDTA, HEPES pH 7.0, 25 C.
Series [4] addresses T3, E. coli RNase H1 D134A (nuclease-deficient parent) (Escherichia coli, UniProt P0A7Y4 SEQ:1-155).
T3 chain: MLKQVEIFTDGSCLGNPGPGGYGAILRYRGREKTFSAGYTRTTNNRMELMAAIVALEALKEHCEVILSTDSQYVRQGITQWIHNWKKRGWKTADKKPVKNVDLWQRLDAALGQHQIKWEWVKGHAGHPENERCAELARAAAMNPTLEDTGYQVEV
Description: filter; 50 mM NaCl, 1 mM EDTA, HEPES pH 7.0, 25 C. Particulars: label: 32P.

For series [5], the target named is T3, E. coli RNase H1 D134A …. As to the kind of experiment: FP filter; nitrocellulose filter binding; 50 mM NaCl, 1 mM EDTA, 20 mM HEPES pH 7.0, 25 C. As to conditions: label: 32P end label on DNA strand. The method, then: In the experiment, serial dilutions of the indicated RNase H proteins were individually incubated in 1×FB Buffer [100 μg/ml BSA; 50 mM NaCl; 1 mM EDTA; 20 mM HEPES, pH 7.0] with a radiolabeled RNA:DNA hybrid of the following sequence:
After 30 minutes incubation at 25° C., the 50 μl reactions were filtered quickly through buffer-equilibrated nitrocellulose filters and washed twice with 500 μl Wash Buffer [10% Glycerol, 50 mM NaCl; 1 mM EDTA; 20 mM HEPES, pH 7.0]. […] The amount of RNA:DNA hybrid retained by each filter was directly quantitated from the damp filters by Cerenkov counting. Each protein was tested in triplicate and the results averaged. Control filters to determine total input radioactivity were used to calculate the percent of total input hybrid bound. SDS-PAGE and densitometry re-confirmed protein concentrations.

Where [6] appears, read: competition vs RNA:DNA#1, filter binding.
Setting [7] is: competition vs RNA:DNA#2, filter binding.
[8] abbreviates: competition vs RNA:DNA#3, filter binding.

Experimental findings from patent US20040229242, “Methods of capturing, detecting and quantifying RNA:DNA hybrids and a modified RNase H useful therein” (published 2004) are described below.

Take “heat-denatured sheared salmon sperm ssDNA”: the IC50 in series [1] (setting [6]) is 1700 nM; in series [1] (setting [7]), 5500 nM; in series [1] (setting [8]) it was 2900 nM; in series [2] (setting [6]), 9000 nM; in series [2] (setting [7]), 15000 nM; in series [2] (setting [8]), 10000 nM.

B1: RNA:DNA#2 (DNA:RNA)
RNA: GGCGAACAGGACUGCGUAUGAUAGG
DNA: CCTATCATACGCAGTCCTGTTCGCC
For the molecule B1, the figures for the Kd in series [3] (label: 32P) and in series [4] were 6 nM and 8 nM, respectively.

B2: RNA:DNA#3 (DNA:RNA)
RNA: AGUUCGACGAGCAUGGAGAGGUCAG
DNA: CTGACCTCTCCATGCTCGTCGAACT
As for B2, the Kd was determined as 5.5 nM in series [3] (label: 32P) and 8 nM in series [4].

B3: RNA:DNA#1 (DNA:RNA)
RNA: GGACCGGAAAGGUACGAGCAUGUGA
DNA: TCACATGCTCGTACCTTTCCGGTCC
In the case of B3, the Kd in series [5] came out at 10 nM; in series [3] (label: 32P end label on DNA strand) it was 5.1 nM.

In general, IC50 refers to the point on the concentration scale where inhibition reaches its midpoint. One may read the Kd as the constant that tells how readily two partners part at equilibrium.
